How the values were obtained:
SEC-MALS = target: the molecule itself; assay: SEC-MALS
TRIM25 WT [1] = target: T1, TRIM25 WT (human, UniProt Q14258 1-630); assay: EMSA
TRIM25 7K peptide = target: T2, TRIM25 7K peptide (human, UniProt Q14258 379-394); assay: EMSA
T2 chain: PVKKVSKEEKKSKKPP

TRIM25 SPRY = TRIM25 SPRY (human, UniProt Q14258 410-630); assay: EMSA
TRIM25 ΔSPRY (RBCC) = TRIM25 ΔSPRY (RBCC) (human, UniProt Q14258 1-379); assay: EMSA
TRIM25 CCD-SPRY = TRIM25 CCD-SPRY (human, UniProt Q14258 189-630); assay: EMSA
Sequence of TRIM25 CCD-SPRY (Q14258 189-630): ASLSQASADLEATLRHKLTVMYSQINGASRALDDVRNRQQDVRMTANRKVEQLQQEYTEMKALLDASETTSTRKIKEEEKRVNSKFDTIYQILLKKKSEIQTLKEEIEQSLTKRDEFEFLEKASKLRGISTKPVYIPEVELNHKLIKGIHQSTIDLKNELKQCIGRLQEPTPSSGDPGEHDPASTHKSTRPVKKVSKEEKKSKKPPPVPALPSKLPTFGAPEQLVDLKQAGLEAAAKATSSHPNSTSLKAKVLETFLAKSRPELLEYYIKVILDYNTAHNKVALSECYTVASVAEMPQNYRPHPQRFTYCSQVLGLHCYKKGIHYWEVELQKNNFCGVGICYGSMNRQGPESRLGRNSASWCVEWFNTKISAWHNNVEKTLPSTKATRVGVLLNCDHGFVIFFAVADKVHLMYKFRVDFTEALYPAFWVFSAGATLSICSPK

TRIM25 CCD = TRIM25 CCD (human, UniProt Q14258 189-379); assay: EMSA
TRIM25 CCD+7K = TRIM25 CCD+7K (human, UniProt Q14258 189-409); assay: EMSA
Sequence of TRIM25 CCD+7K (Q14258 189-409): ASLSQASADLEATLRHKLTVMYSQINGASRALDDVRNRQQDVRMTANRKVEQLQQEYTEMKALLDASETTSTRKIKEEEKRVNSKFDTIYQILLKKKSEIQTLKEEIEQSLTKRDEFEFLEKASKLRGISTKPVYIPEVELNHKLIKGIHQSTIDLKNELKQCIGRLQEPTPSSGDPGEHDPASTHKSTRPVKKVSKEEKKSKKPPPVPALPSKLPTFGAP

TRIM25 WT [2] = target: T1, TRIM25 WT; assay: SEC-MALS
TRIM25 7KA mutant = TRIM25 7KA mutant (human, UniProt Q14258 1-630, K381A;K382A;K385A;K388A;K389A;K391A;K392A); assay: SEC-MALS

T1 sequence (Q14258 whole entry): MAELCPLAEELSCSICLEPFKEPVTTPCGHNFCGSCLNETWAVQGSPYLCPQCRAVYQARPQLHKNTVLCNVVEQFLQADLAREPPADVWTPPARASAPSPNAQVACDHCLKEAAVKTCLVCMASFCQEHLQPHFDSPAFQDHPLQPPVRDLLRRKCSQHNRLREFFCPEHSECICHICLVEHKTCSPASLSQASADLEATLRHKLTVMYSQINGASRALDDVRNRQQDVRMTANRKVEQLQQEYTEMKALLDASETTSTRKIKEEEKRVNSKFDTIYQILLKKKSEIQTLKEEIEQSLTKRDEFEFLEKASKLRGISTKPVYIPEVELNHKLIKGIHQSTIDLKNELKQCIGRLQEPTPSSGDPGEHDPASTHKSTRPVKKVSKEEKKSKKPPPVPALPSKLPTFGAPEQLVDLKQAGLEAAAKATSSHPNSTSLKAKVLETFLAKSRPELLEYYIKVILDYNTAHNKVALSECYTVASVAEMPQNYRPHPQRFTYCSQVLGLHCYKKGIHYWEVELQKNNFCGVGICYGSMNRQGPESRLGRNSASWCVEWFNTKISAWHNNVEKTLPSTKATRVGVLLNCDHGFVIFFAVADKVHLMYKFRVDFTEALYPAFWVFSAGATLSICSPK

B1: Full-length TRIM25 7KA mutant, purified (enzyme, human, UniProt Q14258 1-630, looked up)
chain: MAELCPLAEELSCSICLEPFKEPVTTPCGHNFCGSCLNETWAVQGSPYLCPQCRAVYQARPQLHKNTVLCNVVEQFLQADLAREPPADVWTPPARASAPSPNAQVACDHCLKEAAVKTCLVCMASFCQEHLQPHFDSPAFQDHPLQPPVRDLLRRKCSQHNRLREFFCPEHSECICHICLVEHKTCSPASLSQASADLEATLRHKLTVMYSQINGASRALDDVRNRQQDVRMTANRKVEQLQQEYTEMKALLDASETTSTRKIKEEEKRVNSKFDTIYQILLKKKSEIQTLKEEIEQSLTKRDEFEFLEKASKLRGISTKPVYIPEVELNHKLIKGIHQSTIDLKNELKQCIGRLQEPTPSSGDPGEHDPASTHKSTRPVAAVSAEEAASAAPPPVPALPSKLPTFGAPEQLVDLKQAGLEAAAKATSSHPNSTSLKAKVLETFLAKSRPELLEYYIKVILDYNTAHNKVALSECYTVASVAEMPQNYRPHPQRFTYCSQVLGLHCYKKGIHYWEVELQKNNFCGVGICYGSMNRQGPESRLGRNSASWCVEWFNTKISAWHNNVEKTLPSTKATRVGVLLNCDHGFVIFFAVADKVHLMYKFRVDFTEALYPAFWVFSAGATLSICSPK
- binding result (SEC-MALS): binds

B2: 28-bp dsRNA, fluorescent (dsRNA)
RNA 1: AUGGCUAGCUGGAGCCACCCGCAGUUCG
RNA 2: CGAACUGCGGGUGGCUCCAGCUAGCCAU
- Kd (TRIM25 WT [1]): 260 ± 30 nM
- binding result (TRIM25 7K peptide): no binding
- Kd (TRIM25 SPRY): 3470 ± 1170 nM
- binding result (TRIM25 ΔSPRY (RBCC)): no binding
- Kd (TRIM25 CCD-SPRY): 110 ± 20 nM
- binding result (TRIM25 CCD): no binding
- binding result (TRIM25 CCD+7K): no binding

B3: 56-bp dsRNA (dsRNA)
RNA 1: AUGGCUAGCUGGAGCCACCCGCAGUUCGUACAAGGAUGACGAUGACAAGGGUACAA
RNA 2: UUGUACCCUUGUCAUCGUCAUCCUUGUACGAACUGCGGGUGGCUCCAGCUAGCCAU
- binding result (TRIM25 WT [2]): binds
- binding result (TRIM25 7KA mutant): no binding

Source: paper PMC6289755 (Journal of molecular biology, 2018)
